The target in data set [1] is T1, RAD51 (Homo sapiens, UniProt Q06609 1-339). Briefly: BLI.
For data set [2], the target named is T1, RAD51. Put plainly: FLIM.

T1 sequence (Q06609 whole entry): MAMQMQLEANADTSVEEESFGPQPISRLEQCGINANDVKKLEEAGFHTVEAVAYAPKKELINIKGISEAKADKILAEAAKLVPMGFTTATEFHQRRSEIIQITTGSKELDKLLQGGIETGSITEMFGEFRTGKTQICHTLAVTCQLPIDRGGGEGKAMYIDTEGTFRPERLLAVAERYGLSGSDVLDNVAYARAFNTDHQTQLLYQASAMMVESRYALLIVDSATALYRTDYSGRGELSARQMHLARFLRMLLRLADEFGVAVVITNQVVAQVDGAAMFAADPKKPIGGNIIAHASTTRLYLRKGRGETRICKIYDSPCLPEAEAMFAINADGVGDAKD

B1: Apt1 (ssDNA)
DNA: GGGGCGGGGCGGGGC
Broadly, the Kd is the free concentration of one partner at which half of the binding sites on the other are occupied at equilibrium, for simple one-to-one binding. In data set [1], B1 displayed a Kd of 116 ± 14 nM.

B2: Apt3 (ssDNA)
DNA: CGGCGCGGCGCGGCG
The molecule B2 yielded a dissociation constant (Kd) in data set [1] of 188 ± 13 nM.

B3: Apt2 (ssDNA)
DNA: GGGGGGGGGGGGGGG
With B3, in data set [1], binding was characterised by a dissociation constant (Kd) of 138 ± 4 nM. The Kd values of the last two molecules are within 1.5-fold of each other.

B4: Apt1 Texas Red (ssDNA)
DNA: GGGGCGGGGCGGGGC
modifications: locked bases at both ends stated for in-cell assays; unclear for FLIM
As to B4, the binding result in data set [2] is reported as “binds”.

B5: rcApt Texas Red (ssDNA)
DNA: GCCCCGCCCCGCCCC
modifications: locked bases at both ends stated for in-cell assays; unclear for FLIM
Consider B5, for which the binding result in data set [2] is reported as “no binding”.

B6: rcApt (ssDNA)
DNA: GCCCCGCCCCGCCCC
In the case of B6, the binding result in data set [1] is reported as “no binding”.

B7: Apt4 (ssDNA)
DNA: GCGGGGGCGGGG
Molecule B7 came in with a Kd in data set [1] of 413 ± 11 nM.

B8: Apt5 (ssDNA)
DNA: CGGGCGGGCGGG
B8 returned a Kd in data set [1] of 936 ± 39 nM.

The values above are taken from PMC12770486.
